Molecular target: recombinant tyrosine phosphorylated STAT3 dimer (pY705 STAT3-CF) (human) (UniProt P40763)
Experiment: SEC; purified STAT3-CF co-expressed with the ABL1 kinase domain; immunoblot for pY705

- stoichiometry N: 2
Substance: recombinant tyrosine phosphorylated STAT3 dimer (pY705 STAT3-CF) (from UniProt P40763 127-722) (domain or fragment)

— article PMC7431413
